Source: patent US20250027068

Target: pooled human IgG

Row | Protein | Enzyme Activity Endpoint Assay (purified): Fab′2 | Enzyme Activity Endpoint Assay (purified): Fc | Enzyme Activity Endpoint Assay (purified): IgG | Enzyme Activity Endpoint Assay (purified): scIgG
1 | PRT-659 (protein) MQITSVWTKGVTPLTPEQFRYNNEDVIHAPYLAHQGWYDITKAFDGKDNLLCGAATAGNMLHWWFDQNKTEIEAYLSKHPEKQKIIFNNQELFDLREAINTKDDQKDSKLFNYFREKAFPNLSARQLGVMPDLVLDMFINGYYLNVFKTQSTDVNRPYQDKDKRGGIFDAVFTRGDQTTLLTARHDLKNKGLNDISTIIKQELTEGRALALSHTYANVSISHVINLWGADFNAEGNLEAIYVTDSDANASIGMKKYFVGINAHGHVAISAKKIEGENIGAQVLGLFTLSSGKDIWQKLSLEHHHHHH | 946 ng/µL | 499 ng/µL | 0 ng/µL | 0 ng/µL
2 | PRT-671 (protein) MQITTVWTKGVTPPTPEQFRNNNEDVFHAPYLPHQGWYDITKAFDGKDNLLCGAATAGNMLHWWFDQNKEEIEAYLKKYPEKQKIIFNNQELFDLRKAINTKDSQTNSQLFNYFRDKAFPNLSARQLGVMPDHVLDMFINGYYLNVFKTQSTDVNRPYQTRDKRGGIFDAVFNRGDQTTLLTERHDLYNKGLDDISTLIKQELSSGKALGLSHTYANVSISHVINLWGADFNAEGNLEAIYVTDSDDDASIGMKKYYVGKNASGHVRISAKKIEGENIGAQVLGLFTLSTGKDIWQKLSLEHHHHHH | 97 ng/µL | 294 ng/µL | 244 ng/µL | 864 ng/µL
3 | PRT-615 (protein) MQITSVWTKGVTPLTPEQFRYNNEDVIHAPYLAHQGWYDITKAFDGKDNLLCGAATAGNMLHWWFDQNKTEIEAYLSKYPEKQKIIFNNQELFDLRAAINTKDSQTNSQLFNYFRDKAFPNLSARQLGVMPDLVLDMFINGYYLNVFKTQSTDVNRPYQDKDKRGGIFDAVFNRGDQTTLLTARHDLKNKGLNDISTIIKQELSSGRALALSHTYANVSISHVINLWGADFNAEGNLEAIYVTDSDANSNIGMKKYKVGINAHGHVAISAKKIEGENIGAQVLGLFTLSSGKDIWQKLSLEHHHHHH | 778 ng/µL | 441 ng/µL | 0 ng/µL | 0 ng/µL
4 | PRT-532 (protein) MANQEIRYSEETPKTITSIWTKGVTPPTDFIKNEDVLHAPYIANQGWYDITKTFNGKDDLLCGAATAGNMLHWWFDQNKEEIENYLKKHPEKQKINFNGEQMFDVKEAIDTKDSQTDSKLFEYFKDKAFPYLSTKHLGVMPDLVLDMFINGYYLSLGKHGPTPVKRGTKDPRGGIFDAVFTRGDQSKLLTARHDFKEKTLNEISDLIKQELTEGKALALSHTYANVRINHVINLWGADFNSEGNLEAIYVTDSDSNASIGMKKYYVGVNAAGKVAISAKEIEGDNIGAQVLGLFTLSTGQDIWNQTNLEHHHHHH | 409 ng/µL | 118 ng/µL | 506 ng/µL | 217 ng/µL
5 | PRT-665 (protein) MQITSVWTKGVTPPTPEQFRYNNEDVIHAPYLAHQGWYDITKAFDGKDNLLCGAATAGNMLHWWFDQNKTEIEAYLSKYPEKQKIIFNNQELFDLRAAINTKDSQTNSQLFNYFRDKAFPNLSARQLGVMPDLVLDMFINGYYLNVFKTQSTDVNRPYQDKDKRGGIFDAVFTRGDQTTLLTARHDLSNKGLNDISTIIKQELTEGRALALSHTYANVSISHVINLWGADFNAEGNLEAIYVTDSDSNASIGMKKYYVGINASGHVAISAKKIEGEVIGAQVLGLFTLSSGKEIWQKLSLEHHHHHH | 816 ng/µL | 414 ng/µL | 63 ng/µL | 109 ng/µL
6 | PRT-607 (protein) MQITSVWTYGVKPLTPEQFRYNNEDVIHAPYLEHQGWYDITKAFDGKDNLLCGAATAGNMLHWWFDQNKTEIEAYLSKHPEKQKIIFNNQELFDLKAAIDTKDSQTNSQLFNYFRDKAFPNLSARQLGVMPDLVLDMFINGYYLNVFKTQSTDVNRPYQDKDKRGGIFDAVFTRGDQTTLLTARHDLKNKGLNDISTIIKQELTEGRALALSHTYANVSISHVINLWGADFNAEGNLEAIYVTDSDANASIGMKKYFVGINAHGHVAISAKKIEGENIGAQVLGLFTLSSGKDIWQKLSLEHHHHHH | 779 ng/µL | 470 ng/µL | 0 ng/µL | 0 ng/µL
7 | PRT-620 (protein) MQITSVWTKGVTPLTPEQFRYNNEDVIHAPYLAHQGWYDITKAFDGKDNLLCGAATAGNMLHWWFDQNKTEIEAYLSKHPEKQKIIFNNQELFDLKAAIDTKDSQTNSQLFNYFRDKAFPNLSARQLGVMPDLVLDMFINGYYLNVFKTQSTDVNRPYQDKDKRGGIFDAVFTRGDQTTLLTARHDLKNKTLKEISDIIKQELTEGRALALSHTYANVSISHVINLWGADFNAEGNLEAIYVTDSDANASIGMKKYFVGINAHGHVAISAKKIEGENIGAQVLGLFTLSSGKDIWQKLSLEHHHHHH | 792 ng/µL | 448 ng/µL | 0 ng/µL | 0 ng/µL
8 | PRT-640 (protein) MQITSVWTKGVTPLTPEQFRYNNEDVIHAPYLAHQGWYDITKTFNGKDNLLCGAATAGNMLHWWFDQNKTEIEAYLSKHPEKQKIIFNNQELFDLKAAIDTKDSQTNSQLFNYFRDKAFPNLSARQLGVMPDLVLDMFINGYYLNVFKTQSTDVNRPYQDKDKRGGIFDAVFTRGDQTTLLTARHDLKNKGLNDISTIIKQELTEGRALALSHTYANVSISHVINLWGADFNAEGNLEAIYVTDSDADEKIGMKKYFVGINAHGHVAISAKKIEGENIGAQVLGLFTLSSGKDIWQKLSLEHHHHHH | 951 ng/µL | 507 ng/µL | 0 ng/µL | 0 ng/µL
9 | PRT-629 (protein) MQITSVWTKGVTPLTPEQFRYNNEDVIHAPYLAHQGWYDITKAFDGKDNLLCGAATAGNMLHWWFDQNKEEIEAYLKKYPEKQKIIFNNQELFDLKAAIDTKDSQTNSQLFNYFRDKAFPNLSARQLGVMPDLVLDMFINGYYLNVFKTQSTDVNRPYQDKDKRGGIFDAVFTRGDQTTLLTARHDLKNKGLNDISTIIKQELTEGRALALSHTYANVSISHVINLWGADFNAEGNLEAIYVTDSDANASIGMKKYFVGINAHGHVAISAKKIEGENIGAQVLGLFTLSSGKEIWQKLSLEHHHHHH | 542 ng/µL | 425 ng/µL | 161 ng/µL | 461 ng/µL
10 | PRT-632 (protein) MQITSVWTYGVTPLTPEQFRYNNYEVIHAPYKEGQGWYDITKAFDGKDNLLCGAATAGNMLHWWFDQNKTEIEAYLSKHPEKQKIIFNNQELFDLKAAIDTKDSQTNSQLFNYFRDKAFPNLSARQLGVMPDLVLDMFINGYYLNVFKTQSTDVNRPYQDKDKRGGIFDAVFTRGDQTTLLTARHDLKNKGLNDISTIIKQELTEGRALALSHTYANVSISHVINLWGADFNAEGNLEAIYVTDSDANASIGMKKYFVGINAHGHVAISAKKIEGENIGAQVLGLFTLSSGKDIWQKLSLEHHHHHH | 703 ng/µL | 399 ng/µL | 0 ng/µL | 0 ng/µL
11 | PRT-654 (protein) MQITSVWTKGVTPLTPEQFRYNNEDVIHAPYLAHQGWYDITKAFDGKDNLLCGAATAGNMLHWWFDQNKTEIEAYLSKHPEKQKIIFNNQELFDLKAAIDTKDSQTNSQLFNYFRDKAFPNLSARQLGVMPDLVLDMFINGYYLNVFKTQSTDVNRPYQDKDKRGGIFDAVFTRGDQTTLLTARHDLKNKGLNDISTIIKQELTEGRALALSHTTGNVSYSHVINLWGADFNAEGNLEAIYVTDSDANASIGMKKYFVGINAHGHVAISAKKIEGENVGAQVLGLFTLSSGKDIWQKLSLEHHHHHH | 401 ng/µL | 0 ng/µL | 1170 ng/µL | 11 ng/µL
12 | PRT-634 (protein) MQITSVWTKGVTPLTPEQFRYNNYDVIHAPYKPNQGWYDITKAFDGKDNLLCGAATAGNMLHWWFDQNKTEIEAYLSKHPEKQKIIFNNQELFDLKAAIDTKDSQTNSQLFNYFRDKAFPNLSARQLGVMPDLVLDMFINGYYLNVFKTQSTDVNRPYQDKDKRGGIFDAVFTRGDQTTLLTARHDLKNKGLNDISTIIKQELTEGKALALSHTYANVSISHVINLWGADFNAEGNLEAIYVTDSDANASIGMKKYFVGINAHGHVAISAKKIEGENIGAQVLGLFTLSSGKDIWQKLSLEHHHHHH | 755 ng/µL | 394 ng/µL | 0 ng/µL | 0 ng/µL
13 | PRT-565 (protein) MANQEIRYSEATPSHITSVWTKGVTPPTQFIQNEDVLHAPYIANQGWYDITKTFNGKDDLLCGAATAGNMLHWWFDQNKEQIENYLKKHPEKQKINFNGEQMFDVKEAIDTKDSQTDSALFSYFKDKAFPYLSTKHLGVFPDHVIDMFINGYRLSLTNHGPTPVKRQTKDPRGGIFDAVFTRGDQSKLLTSRHDFKEKTLNEISQLIKQELTEGKALGLSHTYANVRINHVINLWGADFNAEGNLEAIYVTDSDSNASIGMKKYYVGVNSAGKVAISAKEIEGDNIGAQVLGLFTLSTGQDIWQQTNLEHHHHHH | 783 ng/µL | 471 ng/µL | 0 ng/µL | 0 ng/µL
14 | PRT-66 (protein) MANQEIRYSEVTPYHVTSVWTKGVTPPANFTQGEDVFHAPYVANQGWYDITKTFNGKDDLLCGAATAGNMLHWWFDQNKDYIKRYLEEHPEKQKINFNGEQMFDVKEAIDTKNHQLDSKLFEYFKEKAFPYLSTKHLGVFPDHVIDMFINGYRLSLTNHGPTPVKEGSKDPRGGIFDAVFTRGDQSKLLTSRHDFKEKNLKEISDLIKKELTEGKALGLSHTYANVRINHVINLWGADFDSNGNLKAIYVTDSDSNASIGMKKYFVGVNSAGKVAISAKEIKEDNIGAQVLGLFTLSTGQDSWNQTN | 49 ng/µL | 115 ng/µL | 15 ng/µL | 13 ng/µL
